# Test results: PMC11487604, “Selective, Intrinsically Fluorescent Trk Modulating Probes” (ACS Chemical Neuroscience, 2024)
# *1 amine or outer side, *2 acyl side, *3 side chain or, on linkers, in order; H or OH if unused. Where a SMILES comes first, the peptide text is derived from it. Bridges are numbered along the chain shown (N, C = ends). Where no end group is shown, it is not given here. sulfonated dichloro‑BODIPY dye = Sulfonated dichloro-BODIPY dye that cyclises the two flanking Cys through two SNAr reactions; sulfonated dichloro‑BODIPY = sulfonated dichloro-BODIPY dye attached to the two flanking Cys by SNAr reactions; X1 = COc1ccc(C2=C3C=C(S(=O)(=O)O)C([*:2])=[N+]3[B-](F)(F)n3c2cc(S(=O)(=O)O)c3[*:1])cc1
# Legend:
# [1] = target: TrkA-expressing cells (HeLa+A) (UniProt P04629); assay: Cell survival assay in serum-free media, TrkA-expressing cells (HeLa+A); assay type: cell-based; settings: Figure 8 summary
# Method: Cells were seeded at a density of 2 × 10^3 cells/well in complete media in 96-well plates and incubated for 24 h to allow cells to adhere. Cells were washed with DPBS, and then, media were swapped for serum-free media of the same type as the complete media. […] Cells were suspended and live cells counted using flow cytometry (CytoFLEX LX).
# [2] = target: TrkB-expressing cells (HEK+B) (UniProt Q16620); assay: Cell survival assay in serum-free media, TrkB-expressing cells (HEK+B); assay type: cell-based; settings: Figure 8 summary
# Method: Loop mimics 5 were screened in cell survival assays to evaluate their efficacy in stimulating Trk receptors (Figure 2). Mimics were assayed for the ability to rescue cells from cell death when incubated in serum-free media (SFM) in the absence of NTs (a test for “agonism”) or in the presence of a suboptimal NT concentration (a test for NT “modulation”). Simultaneously, these assays may confirm test mimics are not cytotoxic at lower doses (though cytotoxicity assays were also performed up to higher doses, Figure S1). […] All the test compounds were screened at 50 μM concentrations initially, and then, dose response curves were measured for the hits (Table 1 and Figure 3).
# We were forced to use transfectants in different cell lines (HeLa, HEK-293, NIH-3T3 expressing TrkA, B, and C, respectively) due to difficulties in obtaining transfected cells derived from a single wild type; however, none of the cells used express TrkA-C prior to transfection. Throughout this paper, HeLa cells are denoted as “HeLa”, and their TrkA transfectants are “HeLa+A”. Similarly, HEK-293 cells are “HEK”; their TrkB transfectants are HEK+B. NIH-3T3 cells are “NIH”, and their TrkC transfectants are “NIH+C”.
# Cells were seeded at a density of 2 × 10^3 cells/well in complete media in 96-well plates and incubated for 24 h to allow cells to adhere. Cells were washed with DPBS, and then, media were swapped for serum-free media of the same type as the complete media. Cells were then treated with 50 μM compound either alone or in conjunction with suboptimal neurotrophin corresponding to the Trk receptor expressed for 48 h. Cells were washed with DPBS buffer twice and detached from the plate with 50 μL of trypsin for 3 min at 37 °C. Trypsinization was quenched with 100 μL of complete media. Cells were suspended and live cells counted using flow cytometry (CytoFLEX LX). Cell survival was normalized from cell count (CC) readings relative to optimal neurotrophin (NT = 100%) and DMSO (0%) utilizing GraphPad Prism 10.2, followed by statistical analysis via one-way ANOVA and Dunnett’s t test compared to the DMSO control. Dose response versions of this assay were conducted following the same procedure, but the data was analyzed in GraphPad Prism 10.2 using the nonlinear fit: {agonist} vs response – variable slope (four parameters) function.
# [3] = target: TrkC-expressing cells (NIH+C) (UniProt Q16288); assay: Cell survival assay in serum-free media, TrkC-expressing cells (NIH+C); assay type: cell-based; settings: Figure 8 summary
# Method: Loop mimics 5 were screened in cell survival assays to evaluate their efficacy in stimulating Trk receptors (Figure 2). Mimics were assayed for the ability to rescue cells from cell death when incubated in serum-free media (SFM) in the absence of NTs (a test for “agonism”) or in the presence of a suboptimal NT concentration (a test for NT “modulation”). Simultaneously, these assays may confirm test mimics are not cytotoxic at lower doses (though cytotoxicity assays were also performed up to higher doses, Figure S1). […] All the test compounds were screened at 50 μM concentrations initially, and then, dose response curves were measured for the hits (Table 1 and Figure 3). […]
# Cells were seeded at a density of 2 × 10^3 cells/well in complete media in 96-well plates and incubated for 24 h to allow cells to adhere. […] Cells were suspended and live cells counted using flow cytometry (CytoFLEX LX). Cell survival was normalized from cell count (CC) readings relative to optimal neurotrophin (NT = 100%) and DMSO (0%) utilizing GraphPad Prism 10.2, followed by statistical analysis via one-way ANOVA and Dunnett’s t test compared to the DMSO control. Dose response versions of this assay were conducted following the same procedure, but the data was analyzed in GraphPad Prism 10.2 using the nonlinear fit: {agonist} vs response – variable slope (four parameters) function.
# [4] = target: T1, TrkA (on HeLa-TrkA transfectants) (UniProt P04629 33-796); assay: cell-surface fluorescence binding on live cells (plate reader); serial dilution of the intrinsically fluorescent compound in serum-free media on adherent Trk-transfected cells, 2.5 h, washed with DPBS, dissolved in 1% SDS, ex 540/25 nm, em 620/40 nm; fluorescence of the Trk-negative parent cells subtracted; one site - specific binding fit; settings: one partner purified
# T1 construct: TrkA receptor expressed on transfected HeLa cells; also called HeLa+A; source: HeLa, transfected (HeLa-TrkA), on live cells
# [5] = target: T1, TrkA (on HeLa-TrkA transfectants); assay: cell-based or functional assay
# [6] = target: T2, TrkB (on HEK293-TrkB transfectants) (UniProt Q16620 32-822); assay: cell-surface fluorescence binding on live cells (plate reader); serial dilution of the intrinsically fluorescent compound in serum-free media on adherent Trk-transfected cells, 2.5 h, washed with DPBS, dissolved in 1% SDS, ex 540/25 nm, em 620/40 nm; fluorescence of the Trk-negative parent cells subtracted; one site - specific binding fit; settings: one partner purified
# T2 construct: TrkB receptor expressed on transfected HEK-293 cells; also called HEK+B; HEK-TrkB; source: HEK-293, transfected (HEK293-TrkB), on live cells
# [7] = target: T3, TrkC (on NIH3T3-TrkC transfectants) (UniProt Q16288 32-839); assay: as above; settings: one partner purified
# T3 construct: TrkC receptor expressed on transfected NIH-3T3 cells; also called NIH+C; NIH-TrkC; source: NIH-3T3, transfected (NIH3T3-TrkC), on live cells
# [8] = target: T2, TrkB (on HEK293-TrkB transfectants); assay: cell-based or functional assay
# [9] = target: T3, TrkC (on NIH3T3-TrkC transfectants); assay: cell-based or functional assay
# [10] = target: T1, TrkA (on HeLa-TrkA transfectants); assay: cell-based or functional assay; remark: listed apart in the source
# [11] = target: T3, TrkC (on NIH3T3-TrkC transfectants); assay: cell-based or functional assay; remark: listed apart in the source
# T1 sequence (P04629 33-796): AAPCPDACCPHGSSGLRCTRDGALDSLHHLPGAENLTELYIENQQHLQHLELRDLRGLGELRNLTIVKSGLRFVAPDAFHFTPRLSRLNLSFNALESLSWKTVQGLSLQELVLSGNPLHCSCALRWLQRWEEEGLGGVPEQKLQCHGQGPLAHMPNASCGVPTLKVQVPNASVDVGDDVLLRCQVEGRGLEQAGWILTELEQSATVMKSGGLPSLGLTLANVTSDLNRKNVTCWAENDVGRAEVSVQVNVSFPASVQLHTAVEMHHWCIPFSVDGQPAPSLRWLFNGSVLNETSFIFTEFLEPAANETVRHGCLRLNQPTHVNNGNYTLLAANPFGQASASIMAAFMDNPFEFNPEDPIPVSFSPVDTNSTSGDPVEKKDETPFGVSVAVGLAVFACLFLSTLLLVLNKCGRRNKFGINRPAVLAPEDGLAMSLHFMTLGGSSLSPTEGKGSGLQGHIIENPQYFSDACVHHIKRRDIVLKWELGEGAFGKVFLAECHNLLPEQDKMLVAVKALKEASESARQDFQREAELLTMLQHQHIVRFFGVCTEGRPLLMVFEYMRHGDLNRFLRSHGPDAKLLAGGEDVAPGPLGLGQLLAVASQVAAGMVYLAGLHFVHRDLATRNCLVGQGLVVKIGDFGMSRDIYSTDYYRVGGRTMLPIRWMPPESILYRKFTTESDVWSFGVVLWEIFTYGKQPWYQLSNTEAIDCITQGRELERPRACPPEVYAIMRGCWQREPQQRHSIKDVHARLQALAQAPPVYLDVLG
# T3 sequence (Q16288 32-839): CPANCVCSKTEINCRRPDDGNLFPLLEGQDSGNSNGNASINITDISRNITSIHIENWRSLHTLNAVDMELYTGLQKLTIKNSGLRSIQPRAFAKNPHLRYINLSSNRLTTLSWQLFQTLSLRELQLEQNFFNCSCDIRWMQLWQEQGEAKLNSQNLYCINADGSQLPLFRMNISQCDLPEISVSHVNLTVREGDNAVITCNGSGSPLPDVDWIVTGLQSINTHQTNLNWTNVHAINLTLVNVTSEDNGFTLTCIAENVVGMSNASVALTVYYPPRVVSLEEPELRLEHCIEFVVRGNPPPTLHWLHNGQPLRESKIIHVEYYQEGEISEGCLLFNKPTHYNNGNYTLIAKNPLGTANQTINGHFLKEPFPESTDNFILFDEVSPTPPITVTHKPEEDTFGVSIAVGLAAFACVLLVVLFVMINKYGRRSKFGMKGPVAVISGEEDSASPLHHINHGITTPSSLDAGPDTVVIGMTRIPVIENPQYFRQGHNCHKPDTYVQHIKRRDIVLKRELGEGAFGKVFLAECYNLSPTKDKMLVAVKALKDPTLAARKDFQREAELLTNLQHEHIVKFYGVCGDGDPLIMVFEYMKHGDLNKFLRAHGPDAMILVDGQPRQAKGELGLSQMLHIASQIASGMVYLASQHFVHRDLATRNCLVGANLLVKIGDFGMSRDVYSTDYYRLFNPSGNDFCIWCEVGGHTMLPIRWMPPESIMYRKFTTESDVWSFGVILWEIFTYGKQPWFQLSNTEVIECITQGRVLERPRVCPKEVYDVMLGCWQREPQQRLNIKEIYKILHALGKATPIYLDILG
# Sequence of TrkB-expressing cells (HEK+B) (Q16620 32-822): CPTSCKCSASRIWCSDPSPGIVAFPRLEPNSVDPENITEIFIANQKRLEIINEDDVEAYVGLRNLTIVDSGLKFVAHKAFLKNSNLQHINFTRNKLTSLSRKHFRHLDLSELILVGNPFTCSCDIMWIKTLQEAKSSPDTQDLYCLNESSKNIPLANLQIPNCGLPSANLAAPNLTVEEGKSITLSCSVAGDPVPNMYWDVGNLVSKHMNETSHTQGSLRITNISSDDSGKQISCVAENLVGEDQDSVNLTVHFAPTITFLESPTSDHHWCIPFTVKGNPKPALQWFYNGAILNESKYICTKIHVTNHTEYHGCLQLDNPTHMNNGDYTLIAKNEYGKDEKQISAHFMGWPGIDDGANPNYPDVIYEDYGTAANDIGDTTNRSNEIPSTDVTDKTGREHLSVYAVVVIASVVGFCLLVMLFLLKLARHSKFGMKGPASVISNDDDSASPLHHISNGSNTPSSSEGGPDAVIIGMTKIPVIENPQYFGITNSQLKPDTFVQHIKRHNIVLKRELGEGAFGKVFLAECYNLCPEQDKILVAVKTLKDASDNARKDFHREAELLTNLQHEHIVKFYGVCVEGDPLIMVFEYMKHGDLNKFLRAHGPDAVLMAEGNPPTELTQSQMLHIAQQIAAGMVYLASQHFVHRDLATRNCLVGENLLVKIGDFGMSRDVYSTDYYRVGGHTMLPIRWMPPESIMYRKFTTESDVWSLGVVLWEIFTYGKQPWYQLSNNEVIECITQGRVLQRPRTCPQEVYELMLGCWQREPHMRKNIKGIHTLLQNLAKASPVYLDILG
# T2 sequence (Q16620 32-822): as above
# Sequence of TrkC-expressing cells (NIH+C) (Q16288 32-839): as the sequence (Q16288 32-839) above
# Sequence of TrkA-expressing cells (HeLa+A) (P04629 33-796): as the sequence (P04629 33-796) above
molecule,measurement,setting,value
COc1ccc(C2=C3C=C(S(=O)(=O)O)C4=[N+]3[B-](F)(F)n3c2cc(S(=O)(=O)O)c3SC[C@H](NC(C)=O)C(=O)N[C@@H](CC(=O)O)C(=O)N[C@@H](CCC(=O)O)C(=O)N[C@@H](CCCCN)C(=O)N[C@@H](CCC(N)=O)C(=O)N[C@H](C(N)=O)CS4)cc1 [5a(iii)m] (Ac-CDEKQC-NH2; linker 1-6 via X1; N-terminus and C-terminus assumed),result (Trk activity assigned),[1],TrkA modulator
COc1ccc(C2=C3C=C(S(=O)(=O)O)C4=[N+]3[B-](F)(F)n3c2cc(S(=O)(=O)O)c3SC[C@H](NC(C)=O)C(=O)N[C@@H](CC(=O)O)C(=O)N[C@@H](CCSC)C(=O)N[C@@H](CO)C(=O)NCC(=O)N[C@H](C(N)=O)CS4)cc1 [5b(i)] (Ac-CDMSGC-NH2; linker 1-6 via X1; N-terminus and C-terminus assumed),result (Trk activity assigned),[2],TrkB agonist
COc1ccc(C2=C3C=C(S(=O)(=O)O)C4=[N+]3[B-](F)(F)n3c2cc(S(=O)(=O)O)c3SC[C@H](NC(C)=O)C(=O)N[C@@H](C(C)C)C(=O)N[C@@H](CO)C(=O)N[C@@H](CCCCN)C(=O)NCC(=O)N[C@H](C(N)=O)CS4)cc1 [5b(ii)] (Ac-CVSKGC-NH2; linker 1-6 via X1; N-terminus and C-terminus assumed),result (Trk activity assigned),[2],TrkB agonist
CC[C@H](C)[C@@H]1NC(=O)[C@H](CC(=O)O)NC(=O)[C@@H](NC(C)=O)CSc2c(S(=O)(=O)O)cc3n2[B-](F)(F)[N+]2=C(SC[C@@H](C(N)=O)NC(=O)CNC(=O)[C@H](CCCNC(=N)N)NC1=O)C(S(=O)(=O)O)=CC2=C3c1ccc(OC)cc1 [5c(i)] (Ac-CDIRGC-NH2; linker 1-6 via X1; N-terminus and C-terminus assumed),result (Trk activity assigned),[2],TrkB/C agonist
same,result (Trk activity assigned),[3],TrkB/C agonist
COc1ccc(C2=C3C=C(S(=O)(=O)O)C4=[N+]3[B-](F)(F)n3c2cc(S(=O)(=O)O)c3SC[C@H](NC(C)=O)C(=O)N[C@@H](CCC(=O)O)C(=O)N[C@@H](CC(N)=O)C(=O)N[C@@H](CC(N)=O)C(=O)N[C@@H](CCCCN)C(=O)N[C@H](C(N)=O)CS4)cc1 [5c(iii)] (Ac-CENNKC-NH2; linker 1-6 via X1; N-terminus and C-terminus assumed),result (Trk activity assigned),[3],TrkC agonist
CDEKQC (linker 1-6 via sulfonated dichloro‑BODIPY) [cyclo-organopeptide 5a(iii)m],Kd,[4],120 ± 3 nM
same,"EC50 of survival of HeLa-TrkA cells in serum-free media, with suboptimal neurotrophin (0.2 nM NGF)",[5],500 nM
same,"EC50 of survival of HeLa-TrkA cells in serum-free media, without NT",[5],2400 nM
"CDIRGC (linker 1-6 via sulfonated dichloro‑BODIPY dye, flanking Cys of the CX1X2X3X4C-peptide; also called NT-3 loop (i) mimic; source: synthetic peptide (Fmoc SPPS), cyclised onto BODIPY, preparative HPLC) [cyclo-organopeptide 5c(i)]",Kd,[6],43 ± 2 nM
same,Kd,[7],97 ± 4 nM
same,"EC50 of survival of HEK293-TrkB cells in serum-free media, with suboptimal neurotrophin (0.6 nM BDNF)",[8],2200 nM
same,"EC50 of survival of HEK293-TrkB cells in serum-free media, without NT",[8],100 nM
CENNKC (linker 1-6 via sulfonated dichloro‑BODIPY dye) [cyclo-organopeptide 5c(iii)],Kd,[7],91 ± 4 nM
same,"EC50 of survival of NIH3T3-TrkC cells in serum-free media, with suboptimal neurotrophin (0.2 nM NT-3)",[9],900 nM
same,"EC50 of survival of NIH3T3-TrkC cells in serum-free media, without NT",[9],800 nM
CVSKGC (linker 1-6 via sulfonated dichloro‑BODIPY dye) [cyclo-organopeptide 5b(ii)],Kd,[6],115 ± 66 nM
same,"EC50 of survival of HEK293-TrkB cells in serum-free media, with suboptimal neurotrophin (0.6 nM BDNF)",[8],2800 nM
same,"EC50 of survival of HEK293-TrkB cells in serum-free media, without NT",[8],900 nM
"CTQNSC (linker 1-6 via sulfonated dichloro‑BODIPY dye, flanking Cys of the CX1X2X3X4C-peptide; also called NT-3 loop (ii) mimic; source: synthetic peptide (Fmoc SPPS), cyclised onto BODIPY, preparative HPLC) [cyclo-organopeptide 5c(ii)]","IC50 of the decrease of pAKT signalling (ELFI) in PC12 cells (rat, endogenous TrkA) when competed with 10 ng/mL NT; pair blocked: NGF and TrkA",[10],7 μM
same,"IC50 of the decrease of pMAPK signalling (ELFI) in PC12 cells (rat, endogenous TrkA) when competed with 10 ng/mL NT; pair blocked: NGF and TrkA",[10],7 μM
same,IC50 of the decrease of pAKT signalling (ELFI) in NIH+C cells when competed with 10 ng/mL NT; pair blocked: NT-3 and TrkC,[11],7 μM
same,IC50 of the decrease of pMAPK signalling (ELFI) in NIH+C cells when competed with 10 ng/mL NT; pair blocked: NT-3 and TrkC,[11],35 μM
same,Kd,[4],91 ± 2 nM
same,"EC50 of survival of HeLa-TrkA cells in serum-free media, with suboptimal neurotrophin (0.2 nM NGF)",[5],300 nM
same,"EC50 of survival of HeLa-TrkA cells in serum-free media, without NT",[5],4500 nM
